Laboratory results as given in article PMC6883840 (Proceedings of the National Academy of Sciences of the …, 2019).

B1: SerC (Escherichia coli K-12) (protein)
chain: AQIFNFSSGPAMLPAEVLKQAQQELRDWNGLGTSVMEVSHRGKEFIQVAEEAEKDFRDLLNVPSNYKVLFCHGGGRGQFAAVPLNILGDKTTADYVDAGYWAASAIKEAKKYCTPNVFDAKVTVDGLRAVKPMREWQLSDNAAYMHYCPNETIDGIAIDETPDFGADVVVAADFSSTILSRPIDVSRYGVIYAGAQKNIGPAGLTIVIVREDLLGKANIACPSILDYSILNDNGSMFNTPPTFAWYLSGLVFKWLKANGGVAEMDKINQQKAELLYGVIDNSDFYRNDVAKANRSRMNVPFQLADSALDKLFLEESFAAGLHALKGHRVVGGMRASIYNAMPLEGVKALTDFMVEFERRHG

Key:
[1] = molecular target: T1, ThrB (homoserine kinase) (Escherichia coli, UniProt P00547); assay: […]-NMR of ATP to ADP conversion; assay type: biochemical; settings: ATP hydrolysis without second substrate; 37 °C, 24 h
T1 sequence (P00547 1-310): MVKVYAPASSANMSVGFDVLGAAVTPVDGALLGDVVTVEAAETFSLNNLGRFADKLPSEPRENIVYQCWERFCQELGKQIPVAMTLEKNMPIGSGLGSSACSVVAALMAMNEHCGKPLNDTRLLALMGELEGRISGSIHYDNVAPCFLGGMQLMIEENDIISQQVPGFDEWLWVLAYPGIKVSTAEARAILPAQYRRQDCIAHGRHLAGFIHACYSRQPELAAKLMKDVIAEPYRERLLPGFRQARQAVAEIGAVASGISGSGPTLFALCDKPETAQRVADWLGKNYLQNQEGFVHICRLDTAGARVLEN

[2] = substrate: N[C@H](C(=O)O)[C@H](O)CO; assay: purified protein; settings: reverse direction: 4-hydroxythreonine to (3R)-3,4-dihydroxy-2-oxobutanoate

| Molecule | 31P-NMR of ATP to ADP conversion [1] | Km [2] [µM] | kcat [2] |
| --- | --- | --- | --- |
| Nc1ncnc2c1ncn2[C@@H]1O[C@H](COP(=O)(O)OP(=O)(O)OP(=O)(O)O)[C@@H](O)[C@H]1O [ATP] | hydrolysis of ATP in the active site of ThrB in the absence of a second substrate |  |  |
| B1 |  | 2600 ± 700 | 2.0 ± 0.1 × 10^-5 s^-1 |
